In PMC11436948 (Nature Communications, 2024):
Read-outs that look alike come from different tables or passages of the source.

How the values were obtained:
[1] = biological target: ^bioχψδγ3δ’ clamp loader complex containing N-terminally biotinylated χ (E. coli) (UniProt P28905); test: SPR
[2] = biological target: ^bioχψδγ3δ’ clamp loader complex containing N-terminally biotinylated χ (E. coli) (UniProt P28905); test: SPR; remark: listed apart in the source
cryo-EM structure = biological target: the molecule itself; test: cryo-EM structure

| Kd [1] [nM] | Kd [2] [nM] | Molecule | binding result (cryo-EM structure) |
| --- | --- | --- | --- |
| 13.3 | 400 | E. coli β2 sliding clamp (from UniProt P0A988) (natural protein) | – |
| – | – | γ subunit of the E. coli clamp loader complex (natural protein) MSYQVLARKWRPQTFADVVGQEHVLTALANGLSLGRIHHAYLFSGTRGVGKTSIARLLAKGLNCETGITATPCGVCDNCREIEQGRFVDLIEIDAASRTKVEDTRDLLDNVQYAPARGRFKVYLIDEVHMLSRHSFNALLKTLEEPPEHVKFLLATTDPQKLPVTILSRCLQFHLKALDVEQIRHQLEHILNEEHIAHEPRALQLLARAAEGSLRDALSLTDQAIASGDGQVSTQAVSAMLGTLDDDQALSLVEAMVEANGERVMALINEAAARGIEWEALLVEMLGLLHRIAMVQLSPAALGNDMAAIELRMRELARTIPPTDIQLYYQTLLIGRKELPYAPDRRMGVEMTLLRALAFHPRMPLPEPEVPRQSFAPVAPTAVMTPTQVPPQPQSAPQQAPTVPLPETTSQVLAARQQLQRVQGATKAKKE | binds |
